PMC3085965 (Archives of biochemistry and biophysics, 2011)
Blank lines part the entries; values can stand above or below the binder they belong to.

Molecular target: Thrombospondin-1 (human, purified from platelets) (human, UniProt P07996 19-1170, 125I label (where used as 125I-TSP1))
Assay: radioligand binding

Sequence of Thrombospondin-1 (human, purified from platelets) (P07996 19-1170): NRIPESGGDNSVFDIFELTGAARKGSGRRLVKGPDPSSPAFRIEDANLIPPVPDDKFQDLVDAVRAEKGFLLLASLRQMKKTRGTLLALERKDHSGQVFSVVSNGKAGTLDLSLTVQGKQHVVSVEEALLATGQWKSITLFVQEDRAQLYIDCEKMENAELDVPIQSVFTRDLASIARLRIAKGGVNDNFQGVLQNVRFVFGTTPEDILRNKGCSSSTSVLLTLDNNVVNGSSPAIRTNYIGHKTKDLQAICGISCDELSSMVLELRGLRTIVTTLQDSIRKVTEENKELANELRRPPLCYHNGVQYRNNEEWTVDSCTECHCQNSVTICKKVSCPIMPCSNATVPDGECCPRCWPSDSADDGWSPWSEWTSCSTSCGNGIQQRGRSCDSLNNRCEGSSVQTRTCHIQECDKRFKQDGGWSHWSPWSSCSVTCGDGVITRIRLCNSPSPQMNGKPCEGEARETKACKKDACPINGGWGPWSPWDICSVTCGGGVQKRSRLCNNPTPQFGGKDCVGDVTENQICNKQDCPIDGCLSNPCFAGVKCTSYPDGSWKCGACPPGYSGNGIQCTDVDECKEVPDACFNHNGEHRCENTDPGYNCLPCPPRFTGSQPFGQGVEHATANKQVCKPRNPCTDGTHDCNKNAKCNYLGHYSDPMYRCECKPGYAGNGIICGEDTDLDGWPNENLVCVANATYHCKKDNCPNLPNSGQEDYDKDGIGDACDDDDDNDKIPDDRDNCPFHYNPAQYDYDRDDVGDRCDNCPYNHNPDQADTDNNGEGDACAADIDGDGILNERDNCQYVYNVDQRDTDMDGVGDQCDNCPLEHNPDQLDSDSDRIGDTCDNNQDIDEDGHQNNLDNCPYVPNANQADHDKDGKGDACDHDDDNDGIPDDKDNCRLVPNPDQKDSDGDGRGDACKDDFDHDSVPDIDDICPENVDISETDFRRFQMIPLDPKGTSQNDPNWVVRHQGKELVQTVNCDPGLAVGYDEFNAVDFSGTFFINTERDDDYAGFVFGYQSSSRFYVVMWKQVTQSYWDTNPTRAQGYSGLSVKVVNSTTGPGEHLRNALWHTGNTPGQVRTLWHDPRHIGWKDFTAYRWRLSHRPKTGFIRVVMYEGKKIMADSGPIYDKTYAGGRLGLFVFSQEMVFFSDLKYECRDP

Kd: 48 nM
B1: full-length recombinant human sFRP-1 (natural protein, UniProt Q8N474 32-314, looked up)
chain: SEYDYVSFQSDIGPYQSGRFYTKPPQCVDIPADLRLCHNVGYKKMVLPNLLEHETMAEVKQQASSWVPLLNKNCHAGTQVFLCSLFAPVCLDRPIYPCRWLCEAVRDSCEPVMQFFGFYWPEMLKCDKFPEGDVCIAMTPPNATEASKPQGTTVCPPCDNELKSEAIIEHLCASEFALRMKIKEVKKENGDKKIVPKKKKPLKLGPIKKKDLKKLVLYLKNGADCPCHQLDNLSHHFLIMGRKVKSQYLLTAIHKWDKKNKEFKNFMKKMKNHECPTFQSVFK

Kd: 95 nM
B2: full-length recombinant human sFRP-2 (natural protein, UniProt Q96HF1 25-295, looked up)
chain: LFLFGQPDFSYKRSNCKPIPANLQLCHGIEYQNMRLPNLLGHETMKEVLEQAGAWIPLVMKQCHPDTKKFLCSLFAPVCLDDLDETIQPCHSLCVQVKDRCAPVMSAFGFPWPDMLECDRFPQDNDLCIPLASSDHLLPATEEAPKVCEACKNKNDDDNDIMETLCKNDFALKIKVKEITYINRDTKIILETKSKTIYKLNGVSERDLKKSVLWLKDSLQCTCEEMNDINAPYLVMGQKQGGELVITSVKRWQKGQREFKRISRSIRKLQC
